B1: Rubella virus capsid protein, wild type (natural protein)
chain: MASTTPITMEDLQKALEAQSRALRAGLAAGASQSRRPRPPRQRDSSTSGDDSGRDSGGPRRRRGNRGRGQRKDWSRAPPPPEERQESRSQTPAPKPSRAPPQQPQPPRMQTGRGGSAPRPELGPPTNPFQAAVARGLRPPLHDPDTEAPTEACVTSWLWSEGEGAVFYRVDLHFTNLGTPPLDEDGRWDPALMYNPCGPEPPAHVVRAYNQPAGDVRGVWGKGERTYAEQDFRVGGTRWHRLLRMPVRGLDGDTAPLPPHTTERIETRSARHPWRIRFGAPQAFLAGLLLAAVAVGTARA

Key:
Experiment in all cases: cross-linking + co-IP; BHK-21 cells 42 h post-electroporation with WT or mutant viral RNA cross-linked with 1 mM DSP in PBS, 10 min, room temperature, quenched with 125 mM glycine; lysis buffer 2 (10 mM sodium phosphate pH 7.4, 50 mM NaCl, 1% Triton X-100); IP with mAb E1-20 or control mAb; cross-link reversed by DTT; western blot with RuV pAb
[1] = biological target: Rubella virus E2 envelope glycoprotein of the second-site revertant (N277I in the Y281A background) (Rubella virus (RuV))
[2] = biological target: Rubella virus E2 envelope glycoprotein, Y281A mutant (Rubella virus (RuV))
[3] = biological target: Rubella virus E2 envelope glycoprotein, pseudorevertant Y281V (Rubella virus (RuV))

Molecule | Cp/E2 ratio in the E1 mAb IP, normalised to WT (ratio, WT set to 1) [1] | Cp/E2 ratio in the E1 mAb IP, normalised to WT (ratio, WT set to 1) [2] | Cp/E2 ratio in the E1 mAb IP, normalised to WT (ratio, WT set to 1) [3]
Rubella virus capsid protein, D215A (second-site revertant) (from UniProt P08563 1-300) (natural protein) | 0.85 | – | –
B1 | – | 0.31 | 0.46

From article PMC11481484
